From article PMC2760644

Target: F-actin (chicken) (UniProt P68139)
Assay: co-sedimentation

- Kd: 88 µM
Substance: supervillin headpiece L38K point mutant (domain or fragment)
